# B1: Nb2 (llama nanobody against bovine rhodopsin) (VHH)
# VHH: QVQLVESGGGLVQPGGSLRLSCAASGFTFSKYAMNWVRQPPGKGLEWVSGIRPSGDNPTYADSVEGRFTIIRDNDKKMVYLQMTSLKTEDTAVYYCTRGYGTMTIEGQGTQVTVSS
# Experiments:
# [1] = target: photoactivated bovine rhodopsin (bovine) (UniProt P02699)
# [2] = target: P23H bovine opsin (bovine) (UniProt P02699)
# [3] = target: photoactivated bovine rhodopsin (bovine) (UniProt P02699); remark: listed apart in the source
binder,measurement,setting,value
B1,"UV-Vis decay of A478 nm after addition of 5 mM hydroxylamine, plateau against bRho* alone",[1],4 times
same,"opsin level by western blot (1D4) in HEK293S cells co-expressing Nb2 intracellularly, against the non-binding Nb16 control",[2],2 fold
same,"intrinsic Trp fluorescence at 330 nm after illumination (Meta II decay, release of retinal)",[3],3 fold

# Reference: article PMC10457330
